Test in all cases: FRAP in micropatterns
In assay [1] the target is tyk2 fused to monomeric EGFP (tyk2-EGFP) (UniProt P29597 1-1187).
Assay [2] deals with STAT2 fused to tagRFP-T (STAT2-tagRFP) (UniProt P52630 1-851).
Assay [3] deals with STAT2 fused to monomeric EGFP (STAT2-EGFP) (UniProt P52630 1-851).
Chain of STAT2 fused to monomeric EGFP (STAT2-EGFP) (P52630 whole entry, the tested form may be a part): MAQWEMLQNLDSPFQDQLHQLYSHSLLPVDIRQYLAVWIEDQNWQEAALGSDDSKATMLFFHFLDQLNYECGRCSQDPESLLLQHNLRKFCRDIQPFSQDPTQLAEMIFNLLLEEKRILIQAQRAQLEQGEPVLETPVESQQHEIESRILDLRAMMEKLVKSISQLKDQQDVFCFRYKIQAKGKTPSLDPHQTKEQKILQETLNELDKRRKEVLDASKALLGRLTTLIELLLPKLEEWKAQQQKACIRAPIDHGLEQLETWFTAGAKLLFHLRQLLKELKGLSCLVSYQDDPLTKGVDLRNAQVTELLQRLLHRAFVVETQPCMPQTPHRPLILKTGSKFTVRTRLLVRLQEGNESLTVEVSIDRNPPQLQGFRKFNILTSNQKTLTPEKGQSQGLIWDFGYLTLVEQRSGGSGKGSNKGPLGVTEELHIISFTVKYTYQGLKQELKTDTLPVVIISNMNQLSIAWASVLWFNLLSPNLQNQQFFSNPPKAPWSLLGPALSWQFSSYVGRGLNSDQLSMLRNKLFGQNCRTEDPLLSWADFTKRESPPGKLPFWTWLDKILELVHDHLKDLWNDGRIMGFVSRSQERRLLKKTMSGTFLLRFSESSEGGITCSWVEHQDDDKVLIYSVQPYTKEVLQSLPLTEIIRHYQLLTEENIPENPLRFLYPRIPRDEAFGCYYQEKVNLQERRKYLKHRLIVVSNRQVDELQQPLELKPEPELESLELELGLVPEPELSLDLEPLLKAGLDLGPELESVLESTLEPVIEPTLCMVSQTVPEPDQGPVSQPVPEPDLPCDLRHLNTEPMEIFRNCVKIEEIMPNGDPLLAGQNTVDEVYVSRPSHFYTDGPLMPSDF

Chain of tyk2 fused to monomeric EGFP (tyk2-EGFP) (P29597 whole entry, the tested form may be a part): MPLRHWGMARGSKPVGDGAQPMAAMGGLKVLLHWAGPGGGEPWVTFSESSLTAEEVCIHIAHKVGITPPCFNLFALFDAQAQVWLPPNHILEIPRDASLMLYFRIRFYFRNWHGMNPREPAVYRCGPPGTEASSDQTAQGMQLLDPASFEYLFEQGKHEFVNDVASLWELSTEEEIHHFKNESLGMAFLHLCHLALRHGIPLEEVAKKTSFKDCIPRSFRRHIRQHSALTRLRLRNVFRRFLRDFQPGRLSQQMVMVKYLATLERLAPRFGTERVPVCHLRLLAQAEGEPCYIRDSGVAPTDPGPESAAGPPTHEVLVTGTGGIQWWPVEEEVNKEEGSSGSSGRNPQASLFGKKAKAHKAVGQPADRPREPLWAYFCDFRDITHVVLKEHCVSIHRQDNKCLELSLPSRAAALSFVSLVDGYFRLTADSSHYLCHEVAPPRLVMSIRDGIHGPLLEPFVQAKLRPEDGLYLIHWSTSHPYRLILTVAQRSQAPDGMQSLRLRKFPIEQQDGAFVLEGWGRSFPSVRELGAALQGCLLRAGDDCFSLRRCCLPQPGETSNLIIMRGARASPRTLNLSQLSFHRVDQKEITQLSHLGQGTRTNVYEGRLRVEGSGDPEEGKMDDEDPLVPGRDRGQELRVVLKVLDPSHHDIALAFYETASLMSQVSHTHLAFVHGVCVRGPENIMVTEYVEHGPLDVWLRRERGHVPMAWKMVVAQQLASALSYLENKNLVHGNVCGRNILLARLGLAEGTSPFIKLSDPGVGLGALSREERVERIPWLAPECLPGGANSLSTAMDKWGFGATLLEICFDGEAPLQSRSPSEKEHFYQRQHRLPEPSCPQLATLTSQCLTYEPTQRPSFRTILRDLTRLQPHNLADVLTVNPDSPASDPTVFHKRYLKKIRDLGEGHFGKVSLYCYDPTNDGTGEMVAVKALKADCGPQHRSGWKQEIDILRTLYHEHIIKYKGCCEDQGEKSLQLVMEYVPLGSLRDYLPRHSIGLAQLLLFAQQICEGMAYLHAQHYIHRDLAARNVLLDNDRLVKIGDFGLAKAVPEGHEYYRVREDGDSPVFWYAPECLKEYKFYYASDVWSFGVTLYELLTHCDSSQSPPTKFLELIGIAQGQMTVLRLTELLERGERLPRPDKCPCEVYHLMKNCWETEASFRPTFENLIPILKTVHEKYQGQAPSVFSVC
Chain of STAT2 fused to tagRFP-T (STAT2-tagRFP) (P52630 whole entry, the tested form may be a part): as the sequence (P52630 whole entry, the tested form may be a part) above

B1: IFNAR1 fused to an N-terminal HaloTag (HaloTag-IFNAR1) (receptor)
chain: KNLKSPQKVEVDIIDDNFILRWNRSDESVGNVTFSFDYQKTGMDNWIKLSGCQNITSTKCNFSSLKLNVYEEIKLRIRAEKENTSSWYEVDSFTPFRKAQIGPPEVHLEAEDKAIVIHISPGTKDSVMWALDGLSFTYSLVIWKNSSGVEERIENIYSRHKIYKLSPETTYCLKVKAALLTSWKIGVYSPVHCIKTTVENELPPPENIEVSVQNQNYVLKWDYTYANMTFQVQWLHAFLKRNPGNHLYKWKQIPDCENVKTTQCVFPQNVFQKGIYLLRVQASDGNNTSFWSEEIKFDTEIQAFLLPPVFNIRSLSDSFHIYIGAPKQSGNTPVIQDYPLIYEIIFWENTSNAERKIIEKKTDVTVPNLKPLTVYCVKARAHTMDEKLNKSSVFSDAVCEKTKPGNTSKIWLIVGICIALFALPFVIYAAKVFLRCINYVFFPSLKPSSSIDEYFSEQPLKNLLLSTSEEQIEKCFIIENISTIATVEETNQTDEDHKKYSSQTSQDSGNYSNEDESESKTSEELQQDFV
Regarding B1, the koff in assay [1] was approximately 0.0025 s⁻¹.

B2: HaloTag-IFNAR2 (receptor)
chain: ISYDSPDYTDESCTFKISLRNFRSILSWELKNHSIVPTHYTLLYTIMSKPEDLKVVKNCANTTRSFCDLTDEWRSTHEAYVTVLEGFSGNTTLFSCSHNFWLAIDMSFEPPEFEIVGFTNHINVMVKFPSIVEEELQFDLSLVIEEQSEGIVKKHKPEIKGNMSGNFTYIIDKLIPNTNYCVSVYLEHSDEQAVIKSPLKCTLLPPGQESESAESAKIGGIITVFLIALVLTSTIVTLKWIGYICLRNSLPKVLNFHNFLAWPFPNLPPLEAMDMVEVIYINRKKKVWDYNYDDESDSDTEAAPRTSGGGYTMHGLTVRPLGQASATSTESQLIDPESEEEPDLPEVDVELPTMPKDSPQQLELLSGPCERRKSPLQDPFPEEDYSSTEGSGGRITFNVDLNSVFLRVLDDEDSDDLEAPLMLSSHLEEMVDPEDPDNVQSNHLLASGEGTQPTFPSPSSEGLWSEDAPSDQSDTSESDVDLGDGYIMR
For B2, the koff came out at 0.015 ± 0.005 s⁻¹ in assay [2] and 0.12 ± 0.05 s⁻¹ in assay [3].

One may read the koff as a measure of how fast the partners let go of each other.
